Measured values taken from paper PMC1783847.

Target: Bluetongue virus serotype 10 outer capsid protein VP2, unmodified full-length (Bluetongue virus serotype 10 (BTV-10))
Experiment: SDS-PAGE of non-denatured samples with western blot

In the case of “Bluetongue virus serotype 10 outer capsid protein VP2, unmodified full-length (natural protein)”, the stoichiometry N is reported as 3.
